B1: 57B3D10 (antibody, V domains shown)
VH: QVQLQESGPGLVKPSETLSLTCTVSGGSISSYYWSWIRQPPGKGLEWIGYIYYSGSTNYNPSLKSRVTISVDTSKSQFSLKLTSVTAADTAVYYCAKDSDYYGSGSYSYWYFDLWGRGTLVTVSS
VL: EIVMTQSPATLSVSPGERATLSCRASQSVSSNLAWYQQKPGQAPRLLIYGASTRAPGIPARFSGSGSGTEFTLTISSLQSEDFAVYYCQQYNNWPLTFGGGTKVEIK
notes: also called 4-1BB fully human antibody 57B3D10
B2: 11H10C9 (antibody, V domains shown)
VH: QVQLVESGGGVVQPGRSLRLSCAASGFTFSSYAMHWVRQAPGKGLEWVAIIWYDGSNQYYADSVKGRFTISRDNSMNTLYLQMNSLRAEDTAVYYCARVEQWLVSYFDFWGQGTLVTVSS
VL: EIVMTQSPATLSVSPGERATLSCRASQSVSSNLAWYQQKPGQVPRLLIYGASTRATGIPARFSGSGSGTEFTLTISSLQSEDFAVYYCQQYNNWPTFGGGTKVEIK
B3: 15G10D4 (antibody, V domains shown)
VH: B2 VH with T28S, M76K, E100K, F109Y
VL: B2 VL with T72S, T74I
B4: 119B6G5 (antibody, V domains shown)
VH: EVQLLESGGGLVQPGGSLRLSCAASGFTFSNYAMSWVRQGPGKGLEWVSTIIGSGDSTYYTDSVKGRFTISRDNSKNTLFLQMNSLRAEDTAVYYCARDKSGWYYFDYWGQGTLVTVSS
VL: DIQMTQSPSTLSASVGDRVTITCRASQSISNWLAWYQQKPGKAPKLLIYKASSLESGVPSRFSGSGSGTEFTLTISSLQPDDFATYYCQQYNDYFPITFGQGTRLEIK
B5: 23G3B8 (antibody, V domains shown)
VH: QVQLQESGPGLVKPSETLSLTCAVSAYSISSGYYWGWIRQPPGKGLEWIGSIFHSGSNYYNPSLKSRVTISVDPSKNQFSLKLSSVTVADTAVYYCARESSGYNCFDYWGQGTLVTVSS
VL: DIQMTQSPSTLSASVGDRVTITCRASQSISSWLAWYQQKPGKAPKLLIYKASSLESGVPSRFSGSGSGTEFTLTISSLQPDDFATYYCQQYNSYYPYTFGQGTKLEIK
B6: 113F6C6 (antibody, V domains shown)
VH: QVQLVESGGGVVQPGRSLRLSCAASGLTFSSYGMHWVRQAPGKGLEWVAVIWYDGSNKYYADSVKGRFTISRDNSKNTLYLQMNSLRAEDTAVYYCAREEVLWFGELSYNYYYGMDVWGQGTTVTVSS
VL: DIQMTQSPSSLSASVGDRVTITCRASQGISNYLAWYQQKPGKVPKLLIYAASTLQSGVPSRFSGSGSGTDFTLTISSLQPEDVATYYCQKYNSVPLTFGGGTKVEIK
notes: also called 4-1BB fully human antibody 113F6C6; 113F6F6

Our source for the average fluorescence intensity and OD450 nm values is patent US20200347144A1 (SHANGHAI HYAMAB BIOTECH, published 2020).

Residue numbers refer to the chain shown, from its start.

T1 sequence (Q07011 24-255): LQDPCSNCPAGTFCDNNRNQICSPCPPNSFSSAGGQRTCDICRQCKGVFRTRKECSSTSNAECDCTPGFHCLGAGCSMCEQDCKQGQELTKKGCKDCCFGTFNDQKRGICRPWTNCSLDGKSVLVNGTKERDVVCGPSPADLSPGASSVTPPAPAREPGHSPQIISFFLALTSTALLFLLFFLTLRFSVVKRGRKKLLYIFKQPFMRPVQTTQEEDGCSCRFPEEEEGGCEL

The first experiment addresses T1, human 4-1BB, full length, on transfected cells (human, UniProt Q07011 24-255).
T1 construct: whole, on cells; also called CHOK1-h4-1BB
Description: FACS, CHOK1-h4-1BB cells; Ab 0.08 ug/ml. From the text:
(§1) The pIRES plasmid carrying the full-length gene of monkey-derived […] (the preparation method is the same as the preparation method of the pCpC vector carrying the human-derived IgG Fc fragment (hFc) in “Preparation of immunogen A” of the step (1) in Example 1, in which the database accession number of the amino acid sequence of the extracellular region of monkey 4-1BB protein (Phe19-Thr239) is G7PSE7) was transfected into CHOK1 cell line to obtain CHOK1 stable transfected cell line containing monkey 4-1BB (herein referred to as CHOK1-c4-1BB stable cell line). The CHOK1-h4-1BB stable cell line and the CHOK1-c4-1BB stable cell line were expanded and cultivated to 90% confluence in T-75 cell culture flasks. The medium was exhausted, and washed twice with HBSS buffer (Hanks Balanced Salt Solution, purchased from Invitrogen), and then the cells were treated and collected with enzyme-free cell dissociation solution (Versene solution, purchased from Life Technology). The cells were washed twice with HBSS buffer, and after cell counting, the cells were diluted with HBSS buffer to 2×10⁶ cells per ml, and 1% goat serum blocking solution was added, the percentage being the mass percentage. It was incubated on ice for 30 minutes, and then washed twice with HBSS buffer by centrifugation. The collected cells were suspended in FACS buffer (HBSS containing 1% BSA, the percentage was the mass percentage) to 2×10⁶ cells/mL, and 100 μl per well was added to a 96-well FACS reaction plate. The purified 4-1BB antibody test sample obtained in Example 2 was added, 100 microliters per well and incubated on ice for 2 hours. […] It was washed three times with FACS buffer by centrifugation, and 100 μl of fixative [4% (v/v) paraformaldehyde] per well was added to suspend cells, and washed twice with FACS buffer after 10 minutes by centrifugation. The cells were suspended with 100 microliters of FACS buffer, and the results were detected and analyzed with FACS (FACS Calibur, purchased from BD).
In general terms: In flow cytometry, cells or beads pass a laser one at a time.
Regarding B1, the average fluorescence intensity amounted to 389 MFI.

B2 showed an average fluorescence intensity of 200 MFI.

Turning to B3, the average fluorescence intensity was found to be 322 MFI.

The molecule B4 gave an average fluorescence intensity of 199 MFI.

B5: the average fluorescence intensity turned out to be 399 MFI.

Molecule B6 had an average fluorescence intensity of 154 MFI.

The next experiment concerns the target T1, human 4-1BB, full length, on …. Description: FACS, CHOK1-h4-1BB cells; Ab 0.016 ug/ml.
Excerpt: as §1
Turning to B1, the average fluorescence intensity is 148 MFI.

Consider B2, for which the average fluorescence intensity was 58.7 MFI.

In turn, B3 displayed an average fluorescence intensity of 98.2 MFI.

B4: the average fluorescence intensity stood at 49.1 MFI.

B5 showed an average fluorescence intensity of 126 MFI.

With B6, the average fluorescence intensity stood at 46.2 MFI.

For the next experiment, the target named is T2, monkey 4-1BB on CHOK1 cells (monkey).
T2 construct: whole, on cells; also called CHOK1-c4-1BB
Description: FACS, CHOK1-c4-1BB cells; Ab 0.00013 ug/ml.
Excerpt: as §1
The molecule B1 came in with an average fluorescence intensity of 3.3 MFI.

B2 had an average fluorescence intensity of 3 MFI.

The molecule B3 gave an average fluorescence intensity of 3.3 MFI.

Regarding B4, the average fluorescence intensity worked out at 3.2 MFI.

The molecule B5 displayed an average fluorescence intensity of 3.4 MFI.

In turn, B6 registered an average fluorescence intensity of 2.9 MFI.

The target of a further experiment is T3, monkey 4-1BB-his protein (monkey).
T3 construct: extracellular domain; Bought protein; also called extracellular domain of monkey-derived 4-1BB protein
Description: ELISA, coated monkey 4-1BB-his; Ab 0.0032 ug/ml. The protocol:
(§2) The purified immunogen A (4-1BB-hFc), monkey 4-1BB-his, and mouse 4-1BB-his obtained in Example 1 [for the preparation method, see step 1 of Example 1, preparation of immunogen A], of which the extracellular domain of monkey-derived 4-1BB protein (purchased from ACRO biosystems), the extracellular domain of mouse 4-1BB protein (purchased from sino biological) or other immune detection point proteins respectively were diluted with PBS to a final concentration of 1.0 μg/mL, then added with […] per well to 96-well ELISA plate. It was sealed with plastic film and incubated at 4° C. overnight. The next day, the plate was washed twice with the plate-washing solution [PBS containing 0.01% (v/v) Tween20] and blocking solution [PBS containing 0.01% (v/v) Tween 20 and 1% (v/v) BSA] was added and blocked at room temperature for 2 hours. The blocking solution was discarded and 100 μl of the purified 4-1BB antibody obtained in Example 2 was added per well. After incubated at 37° C. for 2 hours, the plate was washed 3 times with a plate-washing solution [PBS containing 0.01% (v/v) Tween20]. A secondary antibody (purchased from Sigma) labeled with HRP (horseradish peroxidase) was added, and after incubated at 37° C. for 2 hours, the plate was washed 3 times with a plate-washing solution [PBS containing 0.01% (v/v) Tween20]. 100 μl of TMB substrate was added per well. After incubated for 30 minutes at room temperature, 100 μl of stop buffer (1.0N HCl) was added per well. The A450 nm values were read using an ELISA plate reader (SpectraMax 384plus, Molecular Device).
For orientation: An ELISA detects its analyte on a solid surface through an enzyme-linked reagent.
For B1, the OD450 nm was found to be 0.25 OD450 nm.

In turn, B4 showed an OD450 nm of 0.24 OD450 nm.

B6 showed an OD450 nm of 0.14 OD450 nm.

In a further experiment the target is T4, hFc-tagged human 4-1BB extracellular domain protein (4-1BB-hFc) (human, UniProt Q07011 24-186, limits assumed).
T4 construct: also called immunogen A; 4-1BB^ECD-hFc; not shown: human IgG Fc fragment (hFc) of the pCpC vector
Description: ELISA, coated human 4-1BB-hFc; Ab 0.0001 ug/ml. The protocol:
as §2
With B2, the OD450 nm was found to be 0.15 OD450 nm.

Take B3: the OD450 nm is 0.17 OD450 nm.

The molecule B4 returned an OD450 nm of 0.07 OD450 nm.

In turn, B5 showed an OD450 nm of 0.07 OD450 nm.

Another experiment has as its target T4, hFc-tagged human 4-1BB extracellular …. Description: ELISA, coated human 4-1BB-hFc; Ab 0.0032 ug/ml. The protocol: as §2
On to B2, for which the OD450 nm worked out at 0.49 OD450 nm.

As for B3, the OD450 nm was found to be 0.52 OD450 nm.

Regarding B4, the OD450 nm was 0.33 OD450 nm.

For the molecule B5, the OD450 nm was 0.28 OD450 nm.

The next experiment concerns the target T2, monkey 4-1BB on CHOK1 cells. Description: FACS, CHOK1-c4-1BB cells; Ab 0.08 ug/ml.
Excerpt: as §1
B1 showed an average fluorescence intensity of 166 MFI.

Molecule B2 returned an average fluorescence intensity of 82.6 MFI.

B3: the average fluorescence intensity was found to be 156 MFI.

Turning to B4, the average fluorescence intensity was determined as 303 MFI.

As for B5, the average fluorescence intensity worked out at 154 MFI.

For the molecule B6, the average fluorescence intensity worked out at 182 MFI.

Another experiment concerns the target T1, human 4-1BB, full length, on …. Description: FACS, CHOK1-h4-1BB cells; Ab 0.00013 ug/ml.
Excerpt: as §1
Turning to B1, the average fluorescence intensity stood at 4.9 MFI.

Turning to B2, the average fluorescence intensity came out at 3.5 MFI.

On to B3, for which the average fluorescence intensity amounted to 4.2 MFI.

Molecule B4 displayed an average fluorescence intensity of 2.6 MFI.

For the molecule B5, the average fluorescence intensity worked out at 4.6 MFI.

B6 registered an average fluorescence intensity of 2.7 MFI.

For a further experiment the target is unchanged. Description: FACS, CHOK1-h4-1BB cells; Ab 0.4 ug/ml.
Excerpt: as §1
With B1, the average fluorescence intensity came to 490 MFI.

B2 gave an average fluorescence intensity of 431 MFI.

For the molecule B3, the average fluorescence intensity came to 492 MFI.

For B4, the average fluorescence intensity came out at 636 MFI.

For B5, the average fluorescence intensity was found to be 541 MFI.

Consider B6, for which the average fluorescence intensity worked out at 323 MFI.

For the next experiment, the target named is T4, hFc-tagged human 4-1BB extracellular …. Description: ELISA, coated human 4-1BB-hFc; Ab 10 ug/ml. On the procedure: as §2
The molecule B2 came in with an OD450 nm of 3.55 OD450 nm.

In turn, B3 showed an OD450 nm of 3.53 OD450 nm.

In turn, B4 gave an OD450 nm of 2.78 OD450 nm.

Molecule B5 had an OD450 nm of 2.78 OD450 nm.

A further experiment shares this target. Nature of the experiment: ELISA, coated human 4-1BB-hFc; Ab 0.08 ug/ml. The protocol: as §2
As to B2, the OD450 nm was found to be 3.27 OD450 nm.

For the molecule B3, the OD450 nm came to 3.35 OD450 nm.

In turn, B4 gave an OD450 nm of 2.62 OD450 nm.

In turn, B5 yielded an OD450 nm of 2.53 OD450 nm.

The target of the next experiment is T3, monkey 4-1BB-his protein. Nature of the experiment: ELISA, coated monkey 4-1BB-his; Ab 0.4 ug/ml. On the procedure: as §2
B1: the OD450 nm was 2.44 OD450 nm.

With B4, the OD450 nm was 2.54 OD450 nm.

B6: the OD450 nm was 2.14 OD450 nm.

For the next experiment, the target named is T3, monkey 4-1BB-his protein. Nature of the experiment: ELISA, coated monkey 4-1BB-his; Ab 0.016 ug/ml. The protocol:
as §2
B1 yielded an OD450 nm of 0.81 OD450 nm.

On to B4, for which the OD450 nm was 0.77 OD450 nm.

Turning to B6, the OD450 nm was 0.47 OD450 nm.

For another experiment, the target named is T2, monkey 4-1BB on CHOK1 cells. Nature of the experiment: FACS, CHOK1-c4-1BB cells; Ab 0.4 ug/ml.
Excerpt: as §1
In the case of B1, the average fluorescence intensity was determined as 549 MFI.

Consider B2, for which the average fluorescence intensity was found to be 298 MFI.

Turning to B3, the average fluorescence intensity was 359 MFI.

Turning to B4, the average fluorescence intensity turned out to be 944 MFI.

Consider B5, for which the average fluorescence intensity worked out at 392 MFI.

Turning to B6, the average fluorescence intensity was found to be 357 MFI.

For another experiment, the target named is T1, human 4-1BB, full length, on …. Nature of the experiment: FACS, CHOK1-h4-1BB cells; Ab 0.0032 ug/ml.
Excerpt: as §1
The molecule B1 displayed an average fluorescence intensity of 42.7 MFI.

B2 displayed an average fluorescence intensity of 18.3 MFI.

On to B3, for which the average fluorescence intensity came out at 28.8 MFI.

In turn, B4 had an average fluorescence intensity of 17.8 MFI.

In turn, B5 yielded an average fluorescence intensity of 38.5 MFI.

In turn, B6 had an average fluorescence intensity of 13.7 MFI.
